This test addresses T1, recombinant Fc-construct of the Dsg2 extracellular domain, Q14126.
T1 chain: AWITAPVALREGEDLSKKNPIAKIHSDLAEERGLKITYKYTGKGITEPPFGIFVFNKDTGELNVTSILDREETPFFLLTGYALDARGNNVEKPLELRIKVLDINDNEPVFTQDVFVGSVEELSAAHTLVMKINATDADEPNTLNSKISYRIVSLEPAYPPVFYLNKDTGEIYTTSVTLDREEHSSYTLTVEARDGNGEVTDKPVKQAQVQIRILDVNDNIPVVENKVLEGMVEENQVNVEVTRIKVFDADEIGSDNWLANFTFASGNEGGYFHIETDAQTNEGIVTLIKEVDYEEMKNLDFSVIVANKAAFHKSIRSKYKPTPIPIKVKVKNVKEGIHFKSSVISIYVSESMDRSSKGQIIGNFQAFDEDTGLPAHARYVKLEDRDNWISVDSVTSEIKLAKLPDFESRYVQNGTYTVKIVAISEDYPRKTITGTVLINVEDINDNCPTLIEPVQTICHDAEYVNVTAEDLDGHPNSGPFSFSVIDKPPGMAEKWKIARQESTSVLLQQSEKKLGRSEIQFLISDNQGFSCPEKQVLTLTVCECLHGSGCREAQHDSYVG
As to the kind of experiment: atomic force microscopy (cell-free single-molecule force measurements); Dsg-Fc constructs (0.15 mg/ml) linked by a PEG linker to the cantilever tip and to mica sheets; Force Mapping mode; binding frequency and unbinding force; pulling speeds from 1 to 20 µm/s and modified Bells equation for the bond lifetime; 5 mM EGTA for 1 h lowered the binding frequency. The following applies: remark: other sources report otherwise.

This note sets out measurements from paper PMC7655986.

B1: recombinant Fc-construct of the Dsg2 extracellular domain, Q14126 50-609 (Fc fusion)
chain: T1 chain
Consider B1, for which the bond lifetime stood at 0.12 s.
